Source: publication PMC11509957, “A New Activity Assay Method for Diamine Oxidase Based on Matrix-Assisted Laser Desorption/Ionization Time-of-Flight Mass Spectrometry” (Molecules, 2024)

Legend:
Assay in all cases: purified protein
Format in all cases: biochemical, Lathyrus oleraceus
purified protein [1] = substrate: NCCCCCCN; conditions: 0.1 mol/L potassium phosphate pH 7.0, 30 °C, O2 co-substrate, excess substrate inhibition above 500 µmol/L
purified protein [2] = substrate: NCCC(O)CN; conditions: 0.1 mol/L potassium phosphate pH 7.0, 30 °C, O2 co-substrate
purified protein [3] = substrate: NCCCCCN; conditions: 0.1 mol/L potassium phosphate pH 7.0, 30 °C, O2 co-substrate, excess substrate inhibition above 500 µmol/L
purified protein [4] = substrate: N=C(N)NCCCCN; conditions: 0.1 mol/L potassium phosphate pH 7.0, 30 °C, O2 co-substrate
purified protein [5] = substrate: NCCCCN; conditions: 0.1 mol/L potassium phosphate pH 7.0, 30 °C, O2 co-substrate
purified protein [6] = substrate: NCC1CCNCC1; conditions: 0.1 mol/L potassium phosphate pH 7.0, 30 °C, O2 co-substrate

B1: Pea seedling amine oxidase (PSAO); diamine oxidase (DAO) (Lathyrus oleraceus) (protein)
chain: VTPLHVQHPLDPLTKEEFLAVQTIVQNKYPISNNRLAFHYIGLDDPEKDHVLRYETHPTLVSIPRKIFVVAIINSQTHEILINLRIRSIVSDNIHNGYGFPILSVDEQSLAIKLPLKYPPFIDSVKKRGLNLSEIVCSSFTMGWFGEEKNVRTVRLDCFMKESTVNIYVRPITGITIVADLDLMKIVEYHDRDIEAVPTAENTEYQVSKQSPPFGPKQHSLTSHQPQGPGFQINGHSVSWANWKFHIGFDVRAGIVISLASIYDLEKHKSRRVLYKGYISELFVPYQDPTEEFYFKTFFDSGEFGFGLSTVSLIPNRDCPPHAQFIDTYVHSANGTPILLKNAICVFEQYGNIMWRHTENGIPNESIEESRTEVNLIVRTIVTVGNYDNVIDWEFKASGSIKPSIALSGILEIKGTNIKHKDEIKEDLHGKLVSANSIGIYHDHFYIYYLDFDIDGTHNSFEKTSLKTVRIKDGSSKRKSYWTTETQTAKTESDAKITIGLAPAELVVVNPNIKTAVGNEVGYRLIPAIPAHPLLTEDDYPQIRGAFTNYNVWVTAYNRTEKWAGGLYVDHSRGDDTLAVWTKQNREIVNKDIVMWHVVGIHHVPAQEDFPIMPLLSTSFELRPTNFFERNPVLKTLSPRDVAWPGCSN
notes: native enzyme purified to homogeneity from 7-day-old etiolated pea seedlings (roots and cotyledons removed); homodimer, 72 kDa subunit; Cu(II) and topaquinone
Question: How did the Km (purified protein [1]) turn out when B1 was run?
Answer: Its Km is 95 ± 7 µM.

Question: And the kcat (purified protein [1])?
Answer: Its kcat is 13 s⁻¹.

Question: What about the kcat/Km (purified protein [1]) of the same protein?
Answer: Its kcat/Km is 137000 M⁻¹ s⁻¹.

Question: What about the Km (purified protein [2]) of the same protein?
Answer: Its Km is 589 ± 33 µM.

Question: What about the kcat (purified protein [2]) of the same protein?
Answer: The kcat was 4.9 s⁻¹.

Question: And the kcat/Km (purified protein [2])?
Answer: The kcat/Km was 8320 M⁻¹ s⁻¹.

Question: What about the Km (purified protein [3]) of the same protein?
Answer: Its Km is 148 ± 8 µM.

Question: What about the kcat (purified protein [3]) of the same protein?
Answer: The kcat was 60.9 s⁻¹.

Question: And the kcat/Km (purified protein [3])?
Answer: The kcat/Km was 411000 M⁻¹ s⁻¹.

Question: And the Km (purified protein [4])?
Answer: The Km was 446 ± 23 µM.

Question: What about the kcat (purified protein [4]) of the same protein?
Answer: Its kcat is 8.4 s⁻¹.

Question: And the kcat/Km (purified protein [4])?
Answer: Its kcat/Km is 18800 M⁻¹ s⁻¹.

Question: And the Km (purified protein [5])?
Answer: The Km was 289 ± 15 µM.

Question: And the kcat (purified protein [5])?
Answer: Its kcat is 47.4 s⁻¹.

Question: And the kcat/Km (purified protein [5])?
Answer: Its kcat/Km is 164000 M⁻¹ s⁻¹.

Question: What about the Km (purified protein [6]) of the same protein?
Answer: The Km was 618 ± 24 µM.

Question: What about the kcat (purified protein [6]) of the same protein?
Answer: Its kcat is 4.2 s⁻¹.

Question: What about the kcat/Km (purified protein [6]) of the same protein?
Answer: Its kcat/Km is 6800 M⁻¹ s⁻¹.
